Assay results: patent publication US20160039933A1 (OXFORD BIOTHERAPEUTICS, published 2016)

Legend:
[1] = biological target: T1, Cadherin-17 protein (92 kDa) in lysates of colorectal cancer cell lines (human, UniProt Q12864 23-832); assay: Western blot of colorectal cancer cell line lysates, antibody diluted 1:500
T1 construct: Same natural protein as m15, here denatured on a Western blot (band at 92 kDa); also called CDH17
T1 sequence (looked up): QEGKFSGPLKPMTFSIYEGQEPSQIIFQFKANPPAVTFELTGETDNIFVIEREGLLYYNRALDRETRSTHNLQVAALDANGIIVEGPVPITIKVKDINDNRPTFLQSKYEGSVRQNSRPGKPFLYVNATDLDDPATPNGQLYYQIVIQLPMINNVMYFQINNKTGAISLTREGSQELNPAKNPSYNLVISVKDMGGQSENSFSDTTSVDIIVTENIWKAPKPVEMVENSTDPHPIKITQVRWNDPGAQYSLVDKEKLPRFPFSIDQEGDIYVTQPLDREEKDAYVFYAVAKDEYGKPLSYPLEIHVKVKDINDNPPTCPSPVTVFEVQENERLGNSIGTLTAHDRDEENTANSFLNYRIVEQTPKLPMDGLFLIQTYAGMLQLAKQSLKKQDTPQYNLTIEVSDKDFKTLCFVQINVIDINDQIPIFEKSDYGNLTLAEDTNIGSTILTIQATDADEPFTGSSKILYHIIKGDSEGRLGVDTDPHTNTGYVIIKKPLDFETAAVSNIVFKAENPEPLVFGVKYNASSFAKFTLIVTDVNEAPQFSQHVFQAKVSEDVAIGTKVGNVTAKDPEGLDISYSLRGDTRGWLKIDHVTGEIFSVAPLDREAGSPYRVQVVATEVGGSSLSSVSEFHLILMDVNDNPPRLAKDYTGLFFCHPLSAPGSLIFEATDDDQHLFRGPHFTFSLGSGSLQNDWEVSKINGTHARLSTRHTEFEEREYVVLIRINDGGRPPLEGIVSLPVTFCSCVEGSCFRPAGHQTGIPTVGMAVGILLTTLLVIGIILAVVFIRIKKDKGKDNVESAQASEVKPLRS
Procedure: Snap frozen cell pellets were lysed in modified RIPA buffer (50 mM Tris-HCl, pH 7.4, 1% NP-40, 0.25% Na-deoxycholate, 150 mM NaCl, 1 mM EDTA) containing protease inhibitors (Roche) and cleared by spinning down at 18,000 g for 15 min at 4 C. The 4×LDS sample loading buffer (Invitrogen Inc.) was added to the cleared lysate to a final concentration of 1×; sample was heated for 10 min at 70° C. and kept at −80° C. afterwards. Before loading on a gel samples were re-heated.
Membrane was incubated with animal-free blocker (Vector) and probed with anti-Cadherin-17 antibody in animal-free blocker at 1:500 dilution, at 4 C, for 14-18 h, rotating. The secondary was anti-mouse DyLight® 488 conjugate (Pierce).
A clear signal was detected at a size corresponding to the Cadherin-17 protein (92 kDa) in 11 of the 14 chosen colorectal cell lines for all 5 Cadherin-17 antibodies (PTA001_A3, PTA001_A4, PTA001_A6, PTA001_A8 and PTA001_A9). […] Cell lines were carefully selected for different genetic backgrounds relevant to the initiation and progression of CRC (RER+=replication error positive tumor phenotype; RER−=replication error deficient tumor phenotype; p53 wild type or mutant and APC wild type or mutant genotype).

[2] = biological target: T2, cell-surface human Cadherin-17 (human, UniProt Q12864 23-832); assay: flow cytometry (FACS) on LoVo cells, antibody titration 0.005-10 ug/ml
T2 construct: whole, on cells; Endogenous protein on cells; also called Liver-intestine cadherin; LI-cadherin
T2 sequence (looked up): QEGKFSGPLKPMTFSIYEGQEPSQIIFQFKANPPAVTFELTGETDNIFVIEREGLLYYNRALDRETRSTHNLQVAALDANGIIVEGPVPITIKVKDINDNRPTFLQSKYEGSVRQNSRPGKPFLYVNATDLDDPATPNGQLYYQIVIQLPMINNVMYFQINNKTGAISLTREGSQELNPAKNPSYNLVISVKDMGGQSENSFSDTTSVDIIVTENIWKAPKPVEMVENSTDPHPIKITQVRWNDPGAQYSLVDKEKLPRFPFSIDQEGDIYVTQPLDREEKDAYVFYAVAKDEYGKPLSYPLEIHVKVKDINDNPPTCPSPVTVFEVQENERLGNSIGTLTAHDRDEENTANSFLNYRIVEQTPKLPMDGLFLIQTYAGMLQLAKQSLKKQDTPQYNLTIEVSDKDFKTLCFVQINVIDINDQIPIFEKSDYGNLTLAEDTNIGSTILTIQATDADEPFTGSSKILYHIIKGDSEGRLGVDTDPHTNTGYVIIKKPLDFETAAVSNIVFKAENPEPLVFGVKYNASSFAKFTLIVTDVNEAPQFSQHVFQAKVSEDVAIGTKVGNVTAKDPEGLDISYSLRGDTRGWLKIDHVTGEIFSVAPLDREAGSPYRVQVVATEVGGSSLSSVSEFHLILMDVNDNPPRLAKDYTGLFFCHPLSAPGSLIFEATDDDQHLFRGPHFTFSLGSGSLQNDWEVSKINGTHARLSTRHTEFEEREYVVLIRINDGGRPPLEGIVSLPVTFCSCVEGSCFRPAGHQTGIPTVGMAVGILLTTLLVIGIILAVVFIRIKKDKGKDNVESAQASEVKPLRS

B1: PTA001_A4 monoclonal antibody (Fab, V domains shown)
VH: EVQLQQSVAELVKPGASVKMSCKVSGYTLTDHTIHWMKQRPEQGLEWIGYIYPRDGITGYNEKFKGKATLTADTSSSTAYMQLNSLTSEDSAVYFCARWGYSYRNYAYYYDYWGQGTTLTVSS
VL: DIVMSQSPSSLAVSVGEKVTMSCKSSQSLLHSSNQKNYLAWYQQKPGQSPKVLIYWASTRESGVPDRFTGSGSGTDFTLTITSVKSEDLAVYYCQQYYSYPWTFGGGTRLEIKR
B1: binds [1]; binds [2].
